The target in assay [1] is alanine substitution at H52, R76, F108 residues of FGF23 (three single mutants, as a group) (human). As to the kind of experiment: ELISA; indirect ELISA: FGF23 or its mutants coated at 2 µg/mL on Maxisorp plates (4 °C overnight), Burosumab or its variants three-fold serially diluted in PBS from 9 µg/mL, room temperature 2 h, anti-human IgG H&L-HRP, A450; fold change from Kd values against the wild type. (ELISA stands for enzyme-linked immunosorbent assay.)

In assay [2] the target is Burosumab (wild type). As to the kind of experiment: indirect ELISA. The note with it: read off a plot; for ratio to parent: chain shown with the change;; for response: chain shown with the change, level of the fitted curve at the highest mAb concentration, log [µg/mL] = 0.5, parent: est. 0.57.

Residue numbers refer to the chain shown, from its start. Names and notes keep the numbering of the source.

B1: Burosumab (wild type) (antibody, V domains shown)
VH: QVQLVQSGAEVKKPGASVKVSCKASGYTFTNHYMHWVRQAPGQGLEWMGIINPISGSTSNAQKFQGRVTMTRDTSTSTVYMELSSLRSEDTAVYYCARDIVDAFDFWGQGTMVTVSS
VL: AIQLTQSPSSLSASVGDRVTITCRASQGISSALVWYQQKPGKAPKLLIYDASSLESGVPSRFSGSGSGTDFTLTISSLQPEDFATYYCQQFNDYFTFGPGTKVDIK
The molecule B1 returned a fold decrease in binding against wild-type FGF23 in assay [1] of 7 to 10 fold.

B2: His-SUMO-FGF23 (N-terminal domain of human FGF23, wild type), Q9GZV9 R48A (protein)
chain: YPNASPLLGSSWGGLIHLYTATAANSYHLQIHKNGHVDGAPHQTIYSALMIRSEDAGFVVITGVMSRRYLCMDFRGNIFGSHYFDPENCRFQHQTLENGYDVYHSPQYHFLVSLGRAKRAFLPGMNPPPYSQFLSRRNEIPLIHFNTPIPRRHTRSAEDDSERDPLNVLKPRARMTPAPA
Regarding B2, the ratio to parent in assay [2] was found to be 1.

B3: His-SUMO-FGF23 (N-terminal domain of human FGF23, wild type), Q9GZV9 E121A (protein)
chain: B2 chain with A24R, E97A
Turning to B3, in assay [2], the ratio to parent turned out to be 1.

B4: His-SUMO-FGF23 (N-terminal domain of human FGF23, wild type), Q9GZV9 R76A (protein)
chain: B2 chain with A24R, R52A
Regarding B4, the ratio to parent in assay [2] is 8.2.

B5: His-SUMO-FGF23 (N-terminal domain of human FGF23, wild type), Q9GZV9 H133A (protein)
chain: B2 chain with A24R, H109A
For the molecule B5, the ratio to parent in assay [2] was 2.2.

B6: His-SUMO-FGF23 (N-terminal domain of human FGF23, wild type), Q9GZV9 H52A (protein)
chain: B2 chain with A24R, H28A
Turning to B6, the ratio to parent in assay [2] was 9.

B7: His-SUMO-FGF23 (N-terminal domain of human FGF23, wild type), Q9GZV9 R99A (protein)
chain: B2 chain with A24R, R75A
Consider B7, for which, in assay [2], the ratio to parent turned out to be 1.4.

B8: His-SUMO-FGF23 (N-terminal domain of human FGF23, wild type), Q9GZV9 F108A (protein)
chain: B2 chain with A24R, F84A
For B8, the ratio to parent in assay [2] came out at 6.2.

B9: His-SUMO-FGF23 (N-terminal domain of human FGF23, wild type), Q9GZV9 Y70A (protein)
chain: B2 chain with A24R, Y46A
As to B9, in assay [2], the ratio to parent came out at 1.8.

B10: His-SUMO-FGF23 (N-terminal domain of human FGF23, wild type), Q9GZV9 Y43A (protein)
chain: B2 chain with Y19A, A24R
Regarding B10, the ratio to parent in assay [2] was determined as 1.7.

B11: His-SUMO-FGF23 (N-terminal domain of human FGF23, wild type), Q9GZV9 Y107A (protein)
chain: B2 chain with A24R, Y83A
For B11, the ratio to parent in assay [2] stood at 1.4.

B12: His-SUMO-FGF23 (N-terminal domain of human FGF23, wild type), Q9GZV9 F82A (protein)
chain: B2 chain with A24R, F58A
Take B12: the ratio to parent in assay [2] turned out to be 1.1.

B13: mouse FGF23 (wild type), Q9EPC2 T76R (protein)
chain: YPDTSPLLGSNWGSLTHLYTATARTSYHLQIHRDGHVDGTPHQTIYSALMIRSEDAGSVVITGAMTRRFLCMDLHGNIFGSLHFSPENCKFRQWTLENGYDVYLSQKHHYLVSLGRAKRIFQPGTNPPPFSQFLARRNEVPLLHFYTVRPRRHTR
B13: in assay [2], the response came to 0.78 A450.

B14: mouse FGF23 (wild type), Q9EPC2 T49N (protein)
chain: B13 chain with T25N, R52T
With B14, the response in assay [2] is 0.59 A450.

B15: mouse FGF23 (wild type), Q9EPC2 Q117H (protein)
chain: B13 chain with R52T, Q93H
Consider B15, for which the response in assay [2] came out at 0.78 A450.

B16: mouse FGF23 (wild type), Q9EPC2 A159S (protein)
chain: B13 chain with R52T, A135S
With B16, the response in assay [2] is 0.4 A450.

B17: mouse FGF23 (wild type), Q9EPC2 Q117H; A159S (protein)
chain: YPDTSPLLGSNWGSLTHLYTATARTSYHLQIHRDGHVDGTPHQTIYSALMITSEDAGSVVITGAMTRRFLCMDLHGNIFGSLHFSPENCKFRHWTLENGYDVYLSQKHHYLVSLGRAKRIFQPGTNPPPFSQFLSRRNEVPLLHFYTVRPRRHTRSAEDPPERDPLNVLKPRPRATPVPVSCSRELPSAEEGGPAASDPLGVLRRGRGDARGGAGGADRCRPFPRFV
Regarding B17, the response in assay [2] is 0.8 A450.

B18: mouse FGF23 (wild type), Q9EPC2 T49N; T76R; Q117H; A159S (protein)
chain: B17 chain with T25N, T52R
In the case of B18, in assay [2], the response was found to be 0.9 A450.

B19: mouse FGF23 (wild type), Q9EPC2 T49N; Q117H; A159S (protein)
chain: B17 chain with T25N
With B19, in assay [2], the response stood at 0.98 A450.

The values above are taken from PMC9427789.
